Molecular target: human haemoglobin (human)
Assay: ITC; MicroCal iTC200; 250 μM TcHpHbR titrated into 18 μM Hb, 20 injections of 2 μl; 20 mM HEPES pH 7.5, 150 mM NaCl, 25°C

Work on “T. congolense haptoglobin-haemoglobin receptor (TcHpHbR), recombinant, as used in gel filtration and ITC” yielded a Kd of 3 nM and a stoichiometry N (receptors per Hb tetramer) of 2.

Reference: PMC4889325
